Data taken from publication PMC9728394, “Molecular Docking and Kinetic Studies of the A226N Mutant of Deinococcus geothermalis Amylosucrase with Enhanced Transglucosylation Activity” (Journal of Microbiology and Biotechnology, 2020).

What was measured:
[1] = system: OC[C@H]1O[C@@](CO)(O[C@H]2O[C@H](CO)[C@@H](O)[C@H](O)[C@H]2O)[C@@H](O)[C@@H]1O; assay: HPLC of 4-methylumbelliferone glucoside, initial velocities, Lineweaver-Burk fit; type: biochemical, Deinococcus geothermalis; conditions: donor, 0.4-200 mM, 1 mM 4-methylumbelliferone as acceptor, 50 mM Tris-HCl pH 8.0, 45°C
Excerpt: (§1) HPLC of 4-methylumbelliferone glucoside, initial velocities, Lineweaver-Burk fit on DgAS (WT DgAS)

Cc1cc(=O)oc2cc(O)ccc12 = assay: as above; type: biochemical, Deinococcus geothermalis; conditions: acceptor, 0.1-1.0 mM, 200 mM sucrose as donor, 50 mM Tris-HCl pH 8.0, 45°C
Excerpt: as §1

Substance	Km [1]	kcat [1]	kcat/Km [1]	Km (Cc1cc(=O)oc2cc(O)ccc12)	kcat (Cc1cc(=O)oc2cc(O)ccc12)	kcat/Km (Cc1cc(=O)oc2cc(O)ccc12)
DgAS (WT DgAS) (Deinococcus geothermalis DSM 11300)	36.174 ± 2.037 mM	0.1096 s⁻¹	3.03 M⁻¹ s⁻¹			
DgAS (WT DgAS) (Deinococcus geothermalis DSM 11300; A226N)	44.570 ± 4.625 mM	0.1139 s⁻¹	2.55 M⁻¹ s⁻¹	2.718 ± 0.655 mM	0.28778 s⁻¹	106 M⁻¹ s⁻¹
